Nine substances from paper PMC3323579 can be followed below.

One assay deals with yeast 26S proteasome (RPN11-3XFLAG) (yeast) (UniProt P43588). The assay can be described thus: ELISA; competition: 8 nM apoMb on immobilised 26S proteasome with peptides 100 µM to 0.01 µM; 100 nM MG132 in all incubations; Ki from a one site binding fit.
Substance myoglobin peptide E7 (69-83) gave a percent inhibition of apoMb binding at 100 µM peptide of 34%.

Take myoglobin peptide F7 (90-104): the percent inhibition of apoMb binding at 100 µM peptide stood at 65%.

Another assay has the same target.
Test: not given
“apomyoglobin (sperm whale myoglobin, heme removed), wild type (from UniProt P02185 1-154) (natural protein)” displayed a stimulation of the ATPase activity of the 26S proteasome (580 nM substrate, 37°C, 15 min) of 2 fold.

For the next assay the target is unchanged. Put plainly: ELISA; 26S proteasome (1 µg/ml, 0.37 nM) captured on plates coated with anti-FLAG antibody; Mb 580 nM to 0.006 nM in TBST with 1 mM ATP, 5 mM MgCl2, 0.1% BSA; bound Mb detected with anti-Mb antibody; one site specific binding fit. On the technique in general: An ELISA detects its analyte on a solid surface through an enzyme-linked reagent.
Consider “apomyoglobin (sperm whale myoglobin, heme removed), wild type (from UniProt P02185 1-154) (natural protein)”, for which the Kd (in general, a measure of binding affinity in units of concentration) stood at 3.5 nM.

Substance “apomyoglobin F-helix mutant G80A/P88A/S92A/H97N (natural protein)” came in with a Kd of 0.57 nM. Compared with the last substance, the Kd is about 6.1-fold lower.

Regarding “apomyoglobin L104C (G-helix mutant) (natural protein)”, the Kd came out at 0.6 nM.

On to “apomyoglobin L115C (G-helix mutant) (natural protein)”, for which the Kd was determined as 0.63 nM.

Take “apomyoglobin M131C (H-helix mutant) (natural protein)”: the equilibrium dissociation constant (Kd) was 45 nM.

“apomyoglobin T39C (C-helix mutant) (natural protein)” returned a Kd of 19.5 nM.

For the substance “apomyoglobin V10C (A-helix mutant) (natural protein)”, the equilibrium dissociation constant (Kd) is 1.25 nM.
